Source: the RNAGym collection of RNA variant scans (doi:10.1073/pnas.2313332121)
Variants at the floor of the assay were thinned out.

B1: TPR 5TU (parent)
chain: GGAUCUUCUCGAUCUAACAAAAAAGACAAAUCUGCCACAAAGCUUGAGAGCAUCUUCGGAUGCAGAGGCGGCAGCCUUCGGUGGCGCGAUAGCGCCAACGUUCUCAACUAUGACACGCAAAACGCGUGCUCCGUUGAAUGGAGUUUAUCAUG

Variants of: B1
Assay: polymerase ribozyme fitness, log enrichment relative to wild type (log ratio); higher = more active; in vitro selection for triplet polymerase activity
How it was run: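 For each subunit of a heterodimeric triplet polymerase ribozyme, a mutant library was built by PCR and transcribed, then taken through a single in vitro selection round in triplicate. Selection involved annealing to a biotinylated primer, the partner subunit and triplets, incubation frozen at −7 °C, gel excision of extended constructs, capture on streptavidin beads and RT-PCR. Genotypes were retained after Illumina sequencing of inputs and outputs only with ≥10 input reads and ≥1 read in each output. Fitness is defined as the logarithm of a genotype's enrichment relative to wild-type enrichment, using inverse-variance-weighted averages across replicates, with the logarithm taken to base 2.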
For GGAUCUUCUCGAUCUAAUAAAAAAGACAAAUCUGCCACCAAGCUUGAGAGCAUCUUUGGAUGCAGAGGCGGCAGCCUUCGGUAGCGCGAUAGCGUCAACGUUCUCAACUAUGACACGCAAAACGCGUGCUCCGUUGAAUGGAGUUUACAAUG, the “polymerase ribozyme fitness (log ratio)” value was ≤ -4.2.
In the case of GGAUCUUCUCGAUCUAAUAAAAAAGACAAAUCUGCCACGAAGCUUGAGAGCACCUUGGGAUGCAGAGGCGGCAGACUUCGGUGGCGCGAUAGCGCCAACGUUCUCAACUAUGACACGCAAAACGCGUGCUCCGUUGAAGGGAGUUUAUCCUG, the “polymerase ribozyme fitness (log ratio)” value is reported as ≤ -4.2.
For GGAUCUUCUCGAUCUAAUAAAAAAGACAUAUCUGCCACAAAGCUUGAGAGCAUCUUCGGAUGCAGAGACGGCAGCCUUCGGUGGUGCGAUAGCGCCAACGUUCUCAACUAUGACACGCAAAACGCGUGCUCCGUUGAAUGGAGUUUAUCAUG, the “polymerase ribozyme fitness (log ratio)” value was ≤ -4.2.
With GGAUCUUCUCGAUCUAAUAAAAAAGACAAAUCUGCCUCAAAGCUUGAGAGCAUCUUCGGAUGCAGAGGCGGCAGCCUUCGGUGGCGCGAUAGCGCCAACGUUCUCAACUAUGACACGCAAAACGCGUGCUCCGUUGAAUGGAGAUUAUCAUG the “polymerase ribozyme fitness (log ratio)” value was -1.92.
For GGAUCUUCUCGAUCUAAUAAAAAAGACAAAUCUGCCACACAGCUUGAGAGCGUCUUCGGAUGCAGAGGCGGCAGCCUUCGGUGGCUCGACAGCGCCAACGUUCUCAACUAUGACACGCAAAACGCGUGCUCCGUGGAAUGGAGUUUAUCAUG, the “polymerase ribozyme fitness (log ratio)” value was ≤ -4.2.
With GGAUCUUCUCGAUCUAAUAAAAAAGACAAAUCUGCCACAUAGCUUGAGAGCAUCUUCGGAUGCAGAGGCGGCAGCCUUCGGUGGCGCGAUAGCGCCAACGUUCUCAACUAUGACACGCAAAACGCGUGCUCCGUUGAAUGGACUUUAUCAUG the “polymerase ribozyme fitness (log ratio)” value was -2.98.
With GGAUCUUCUCGAUCUAAUAAAAAAGUCAAAUCUGCCACAAAGCUUGAGAGCAUCUUCGGAUGCAGAGGCGGCAGGCUUCGGUAGCGCGAUAGCGCCAACGUUCUCAACUAUGACACGCAAAUCGCGUGCUCCGUUGAAUGGAAUUUAUCAUG the “polymerase ribozyme fitness (log ratio)” value was -3.81.
For GGAUCUUCUCGAUCUAAUAAAAAAGACAAAUCUGCCACAAAGCUUGGGAGCUUCUUCGGAUGCAGAGUCGGCAGCCUUAGGUGGCGCGAUAGUGCCAAAGUUCUCAACUAUGACACGCAAAACGCGUGCUCCGUUGAAUGCGUUUUAUCAUG, the “polymerase ribozyme fitness (log ratio)” value was ≤ -4.2.
For GGAUCUUCUCGAUCUAAUAAAAAAGACAAAUCUGCCAUCAAGCUUGAGAGCAUCUUCGGAUGCAGAGGCGGCAGCCUUCGGUGGCGCGAUAUCGCCAACGUUUUCAACUAUGACACGCAAAACGCGUGCUCCGUUGAAUGGAGUUUAUCAUG, the “polymerase ribozyme fitness (log ratio)” value was ≤ -4.2.
In the case of GGAUCUUCUCGAUCUAAUAAAAAAGACAAAUCUGCCAGAGAGCUUGAGAGCAUCUUCGGAAGCAGAGGCGGCAGCCUUCGCUGGCGCGAUAGCGCAAACGUUCUCAACUAUGACAGGCUAAACGCGUGCUCCGUUGAAUGGAGUUUAUCAUG, the “polymerase ribozyme fitness (log ratio)” value is reported as ≤ -4.2.
For GGAUCUUCUCGAUCUAAUAAAAAAGACAAAUCUGCCAUAAAGCUUGAGAGCAUCCUCGGAUGCAGAGGCGGCAGCCUUCGGUGGCGCGAUAGCGCCUACGUUCUCAACUAUGACACGCACAACGCGUGCUCCGUUGAAUGGAGUUUAUCAUG, the “polymerase ribozyme fitness (log ratio)” value was -1.43.
With GGAUCUUCUCGAUCUAAUAAAUAAGACAAAUCUGCCACAAAGCUUGAGAGCAGCUUCGGAUGCAGAGGCGGCAGCCUUCGGUGGCGCGAUAGCGCAAACGUUCUCAACUAUGACACGCAAAACGCGUGCUCCGUUGAAUGGAGUUUAUCAUG the “polymerase ribozyme fitness (log ratio)” value was -3.13.
In the case of GGAUCUUCUCGAUCUAAUAAAAAAGACAAAUCUGCCACAAGGCUUGAGAGUAUCUUCGGAUGCAGAGGCGGCAGCCUUCGGUGGCGCGAUAGCGCCAACGUUCUCAACUAUGACCCGCAAAACGCGUGCUCCGUUGAAUUGAGUUUAUCAUG, the “polymerase ribozyme fitness (log ratio)” value is reported as -3.82.
In the case of GGAUCUUCUCGAUCUAAUAAAUAAGACAAAUCUGCCACAAAGUUUGAGAGCAUCUUCGGAUGCAGAGGCGGCAGCCUUCGGUGGCGCGAUAGCGUCAACGGUCUCAACUAUGACACGCAAAACGCGUGCUCCGUUAAUUGGAGUUUAUCAUG, the “polymerase ribozyme fitness (log ratio)” value is reported as ≤ -4.2.
With GGAUCUUCUCGAUCUAAUAAAAAAGACACAUCUGCCACAAAGCUUGAGAGCAUCUUCGGAUGCAGAGGCGGCAGCCUGCGGUGGCGCGAUAACGCCAACGUUCUCAACUAUGACACGCAAAACGCGUGCUCCGUUGAAUGGAGUUUCUCAUG the “polymerase ribozyme fitness (log ratio)” value was ≤ -4.2.
In the case of GGAUCUUCUCGAUCUAAUAAAAAAGACAAAUCUGCCACAAAGCUUGAGAGCAUCUUCGGGUGCAGAGGCGGCAGCCUUCGGAGGCGCGAUAGCGCCAACGUUCUCAACUAUGACACGCAAAACGCGUGCUCCGUUGAAUGCAGUUUAUCAUG, the “polymerase ribozyme fitness (log ratio)” value is reported as -0.334.
In the case of GGAUCUUCUCGAUCUAAUAAAAAAGAUCAAUCUGCCACAAAGCUUGAGAGCAUCUUCGGAUGCAGAGGCGGCAUCCUUCGGUGGCGCGAUAGCGCCAACUUUCUCAACUAUGACACGCAAAACGCGUGCUCCGUUGAAUGGAGGUUAUCAUC, the “polymerase ribozyme fitness (log ratio)” value is reported as ≤ -4.2.
For GGAUCUUCUCGAUCUAAUAAAAAAGACAAAUCUGCCACAACGCUUGAGAGCAUCUUCGGAUGCAGAGGCGGUAGCCUUCGGUGGCGCGAUAGGGCCAACGUUCGCAACUAUGACACGCAAAACGCGUGCUCCGUUGAAUGGAGUUUAUCAUG, the “polymerase ribozyme fitness (log ratio)” value was ≤ -4.2.
With GGAUCUUCUCGAUCUAAUAAAAAAGACAAAUCUGCCACAAAGCUUGAGAGCAUCUUCGGAUGCAGAGGCGGCAGCCUUCGGUGGCGCGAUAGCGCCAACGUUCUCAACUAUGACACGCAAAACGCGUGCUCCGUUGAAUGGCGUUUAUCAUG the “polymerase ribozyme fitness (log ratio)” value was -0.999.
